B1: Lysozyme C, P61626 (parent)
chain: MKALIVLGLVLLSVTVQGKVFERCELARTLKRLGMDGYRGISLANWMCLAKWESGYNTRATNYNAGDRSTDYGIFQINSRYWCNDGKTPGAVNACHLSCSALLQDNIADAVACAKRVVRDPQGIRAWVAWRNRCQNRDVRQYVQGCGV

Variants of: B1
Conditions: Homo sapiens; pH 2.6; Thermal; DSC; Gly-HCl 0.05 M; structure 1LZ1; whole UniProt chain shown

Variant	Tm	unfolding enthalpy (calorimetric)	unfolding enthalpy (van 't Hoff)
MKALIVLGLVLLSVTVQGKVFERCELARTLKRLGMDGYRGISLANWMCLAKWESGYNTRATNYNAGDRSTDYGIFQINSRYWCNDGKTPGADNACHLSCSALLQDNIADAVACAKRVVRDPQGIRAWVAWRNRCQNRDVRQYVQGCGV	61.7 °C	103 kcal/mol	110 kcal/mol
MKALIVLGLVLLSVTVQGKRFERCELARTLKRLGMDGYRGISLANWMCLAKWESGYNTRATNYNAGDRSTDYGIFQINSRYWCNDGKTPGAVNACHLSCSALLQDNIADAVACAKRVVRDPQGIRAWVAWRNRCQNRDVRQYVQGCGV	62.1 °C	103 kcal/mol	110 kcal/mol
MKALIVLGLVLLSVTVQGKNFERCELARTLKRLGMDGYRGISLANWMCLAKWESGYNTRATNYNAGDRSTDYGIFQINSRYWCNDGKTPGAVNACHLSCSALLQDNIADAVACAKRVVRDPQGIRAWVAWRNRCQNRDVRQYVQGCGV	59.1 °C	104 kcal/mol	99.9 kcal/mol

Same assay, conditions: Homo sapiens; pH 2.7; 64.9 °C; Thermal; DSC; Gly-HCl 0.05 M; structure 1LZ1; whole UniProt chain shown

Variant	ddG of mutation (higher = less stable)	heat capacity change of unfolding	unfolding enthalpy (calorimetric)
MKALIVLGLVLLSVTVQGKVFERCELARTLKRLGMDGYRGISLANWMCLAKWESGYNTRATNYNAGDRSTDYGIFQINSRYWCNDGKTPGADNACHLSCSALLQDNIADAVACAKRVVRDPQGIRAWVAWRNRCQNRDVRQYVQGCGV	0.43 kcal/mol	1.58 kcal/mol/K	107 kcal/mol
MKALIVLGLVLLSVTVQGKRFERCELARTLKRLGMDGYRGISLANWMCLAKWESGYNTRATNYNAGDRSTDYGIFQINSRYWCNDGKTPGAVNACHLSCSALLQDNIADAVACAKRVVRDPQGIRAWVAWRNRCQNRDVRQYVQGCGV	0.38 kcal/mol	1.41 kcal/mol/K	106 kcal/mol
MKALIVLGLVLLSVTVQGKNFERCELARTLKRLGMDGYRGISLANWMCLAKWESGYNTRATNYNAGDRSTDYGIFQINSRYWCNDGKTPGAVNACHLSCSALLQDNIADAVACAKRVVRDPQGIRAWVAWRNRCQNRDVRQYVQGCGV	1.34 kcal/mol	1.7 kcal/mol/K	114 kcal/mol

Same assay, conditions: Homo sapiens; pH 2.7; Thermal; DSC; Gly-HCl 0.05 M; structure 1LZ1; whole UniProt chain shown

Variant	Tm	change of melting temperature, mutant - wild type (higher = more stable)
MKALIVLGLVLLSVTVQGKVFERCELARTLKRLGMDGYRGISLANWMCLAKWESGYNTRATNYNAGDRSTDYGIFQINSRYWCNDGKTPGADNACHLSCSALLQDNIADAVACAKRVVRDPQGIRAWVAWRNRCQNRDVRQYVQGCGV	63.5 °C	-1.4 °C
MKALIVLGLVLLSVTVQGKRFERCELARTLKRLGMDGYRGISLANWMCLAKWESGYNTRATNYNAGDRSTDYGIFQINSRYWCNDGKTPGAVNACHLSCSALLQDNIADAVACAKRVVRDPQGIRAWVAWRNRCQNRDVRQYVQGCGV	63.6 °C	-1.3 °C
MKALIVLGLVLLSVTVQGKNFERCELARTLKRLGMDGYRGISLANWMCLAKWESGYNTRATNYNAGDRSTDYGIFQINSRYWCNDGKTPGAVNACHLSCSALLQDNIADAVACAKRVVRDPQGIRAWVAWRNRCQNRDVRQYVQGCGV	60.8 °C	-4.1 °C

Same assay, conditions: Homo sapiens; pH 2.83; Thermal; DSC; Gly-HCl 0.05 M; structure 1LZ1; whole UniProt chain shown

Variant	Tm	unfolding enthalpy (calorimetric)	unfolding enthalpy (van 't Hoff)
MKALIVLGLVLLSVTVQGKVFERCELARTLKRLGMDGYRGISLANWMCLAKWESGYNTRATNYNAGDRSTDYGIFQINSRYWCNDGKTPGADNACHLSCSALLQDNIADAVACAKRVVRDPQGIRAWVAWRNRCQNRDVRQYVQGCGV	65.9 °C	107 kcal/mol	115 kcal/mol

Same assay, conditions: Homo sapiens; pH 2.98; Thermal; DSC; Gly-HCl 0.05 M; structure 1LZ1; whole UniProt chain shown

Variant	Tm	unfolding enthalpy (calorimetric)	unfolding enthalpy (van 't Hoff)
MKALIVLGLVLLSVTVQGKVFERCELARTLKRLGMDGYRGISLANWMCLAKWESGYNTRATNYNAGDRSTDYGIFQINSRYWCNDGKTPGADNACHLSCSALLQDNIADAVACAKRVVRDPQGIRAWVAWRNRCQNRDVRQYVQGCGV	68.1 °C	112 kcal/mol	118 kcal/mol

Same assay, conditions: Homo sapiens; pH 3.1; Thermal; DSC; Gly-HCl 0.05 M; structure 1LZ1; whole UniProt chain shown

Variant	Tm	unfolding enthalpy (calorimetric)	unfolding enthalpy (van 't Hoff)
MKALIVLGLVLLSVTVQGKVFERCELARTLKRLGMDGYRGISLANWMCLAKWESGYNTRATNYNAGDRSTDYGIFQINSRYWCNDGKTPGADNACHLSCSALLQDNIADAVACAKRVVRDPQGIRAWVAWRNRCQNRDVRQYVQGCGV	70.1 °C	115 kcal/mol	123 kcal/mol

Same assay, conditions: Homo sapiens; pH 3.25; Thermal; DSC; Gly-HCl 0.05 M; structure 1LZ1; whole UniProt chain shown

Variant	Tm	unfolding enthalpy (calorimetric)	unfolding enthalpy (van 't Hoff)
MKALIVLGLVLLSVTVQGKVFERCELARTLKRLGMDGYRGISLANWMCLAKWESGYNTRATNYNAGDRSTDYGIFQINSRYWCNDGKTPGADNACHLSCSALLQDNIADAVACAKRVVRDPQGIRAWVAWRNRCQNRDVRQYVQGCGV	72.5 °C	120 kcal/mol	127 kcal/mol

Same assay, conditions: Homo sapiens; pH 2.88; Thermal; DSC; Gly-HCl 0.05 M; structure 1LZ1; whole UniProt chain shown

Variant	Tm	unfolding enthalpy (calorimetric)	unfolding enthalpy (van 't Hoff)
MKALIVLGLVLLSVTVQGKRFERCELARTLKRLGMDGYRGISLANWMCLAKWESGYNTRATNYNAGDRSTDYGIFQINSRYWCNDGKTPGAVNACHLSCSALLQDNIADAVACAKRVVRDPQGIRAWVAWRNRCQNRDVRQYVQGCGV	66.4 °C	108 kcal/mol	115 kcal/mol

Same assay, conditions: Homo sapiens; pH 3.15; Thermal; DSC; Gly-HCl 0.05 M; structure 1LZ1; whole UniProt chain shown

Variant	Tm	unfolding enthalpy (calorimetric)	unfolding enthalpy (van 't Hoff)
MKALIVLGLVLLSVTVQGKRFERCELARTLKRLGMDGYRGISLANWMCLAKWESGYNTRATNYNAGDRSTDYGIFQINSRYWCNDGKTPGAVNACHLSCSALLQDNIADAVACAKRVVRDPQGIRAWVAWRNRCQNRDVRQYVQGCGV	70.7 °C	114 kcal/mol	123 kcal/mol

Same assay, conditions: Homo sapiens; pH 3.3; Thermal; DSC; Gly-HCl 0.05 M; structure 1LZ1; whole UniProt chain shown

Variant	Tm	unfolding enthalpy (calorimetric)	unfolding enthalpy (van 't Hoff)
MKALIVLGLVLLSVTVQGKRFERCELARTLKRLGMDGYRGISLANWMCLAKWESGYNTRATNYNAGDRSTDYGIFQINSRYWCNDGKTPGAVNACHLSCSALLQDNIADAVACAKRVVRDPQGIRAWVAWRNRCQNRDVRQYVQGCGV	74.1 °C	120 kcal/mol	126 kcal/mol

Same assay, conditions: Homo sapiens; pH 2.82; Thermal; DSC; Gly-HCl 0.05 M; structure 1LZ1; whole UniProt chain shown

Variant	Tm	unfolding enthalpy (calorimetric)	unfolding enthalpy (van 't Hoff)
MKALIVLGLVLLSVTVQGKNFERCELARTLKRLGMDGYRGISLANWMCLAKWESGYNTRATNYNAGDRSTDYGIFQINSRYWCNDGKTPGAVNACHLSCSALLQDNIADAVACAKRVVRDPQGIRAWVAWRNRCQNRDVRQYVQGCGV	62.7 °C	110 kcal/mol	105 kcal/mol

Same assay, conditions: Homo sapiens; pH 3.01; Thermal; DSC; Gly-HCl 0.05 M; structure 1LZ1; whole UniProt chain shown

Variant	Tm	unfolding enthalpy (calorimetric)	unfolding enthalpy (van 't Hoff)
MKALIVLGLVLLSVTVQGKNFERCELARTLKRLGMDGYRGISLANWMCLAKWESGYNTRATNYNAGDRSTDYGIFQINSRYWCNDGKTPGAVNACHLSCSALLQDNIADAVACAKRVVRDPQGIRAWVAWRNRCQNRDVRQYVQGCGV	66.3 °C	117 kcal/mol	111 kcal/mol
